In US20220064256A1 (published 2022):
Where a chain is given by its changes, count along the chain named.

How the values were obtained:
[1] = target: CD22 peptide … (SEQ ID NO: 1) in the context of HLA-A*02:01 (human); assay: cell-based or functional assay
[2] = target: T1, CD22 peptide on HLA-A*02:08 (human); assay: cytokine release
T1 peptide: FLSNDTVQL

[3] = target: T2, CD22 peptide on HLA-A*02:10 (human); assay: cytokine release
T2 peptide: FLSNDTVQL

[4] = target: T3, CD22 peptide on HLA-A*02:02 (human); assay: cytokine release
T3 peptide: FLSNDTVQL

[5] = target: T4, CD22 peptide on HLA-A*02:07 (human); assay: cytokine release
T4 peptide: FLSNDTVQL

[6] = target: T5, CD22 peptide on HLA-A*02:04 (human); assay: cytokine release
T5 peptide: FLSNDTVQL

[7] = target: T6, CD22 peptide on HLA-A*02:05 (human); assay: cytokine release
T6 peptide: FLSNDTVQL

[8] = target: T7, CD22 peptide on HLA-A*02:01 (human); assay: killing
T7 peptide: FLSNDTVQL

[9] = target: T7, CD22 peptide on HLA-A*02:01; assay: cytokine release

B1: CD22 TCR (TCR, V domains shown)
Valpha: EDKVVQSPLSLVVHEGDTVTLNCSYEVTNFRSLLWYKQEKKAPTFLFMLTSSGIEKKSGRLSSILDKKELFSILNITATQTGDSAVYLCAVDNQGGKLIFGQGTELSVKP
Vbeta: GAVVSQHPSWVICKSGTSVKIECRSLDFQATTMFWYRQFPKQSLMLMATSNEGSKATYEQGVEKDKFLINHASLTLSTLTVTSAHPEDSSFYICSARPSGVYNEQFFGPGTRLTVL
- Kd value by peptide titration on T2 cells (50% of maximal IFNγ release, ELISA) [1]: 1.1e-08
- binding result [2]: no recognition
- binding result [3]: recognises
- binding result [4]: no recognition
- binding result [5]: recognises
- binding result [6]: recognises
- binding result [7]: recognises
- binding result [8]: recognises

B2: CD22 TCR 3225 (TCR, V domains shown)
Valpha: B1 Valpha
Vbeta: B1 Vbeta with P98E, S99A
- Kd value by peptide titration on T2 cells (50% of maximal IFNγ release, ELISA) [1]: 2.2e-08
- binding result [9]: recognises
